Data published in the supplement of paper PMC10126150.
± gives the standard deviation of the averaged measurements.

What follows are sequences tested on ATP (assay: switch fluorescence ratio, 500 uM ATP over buffer (Cy3 cluster intensity, sum of 5 cycles each) (fold (ratio)); higher = stronger signal-on switching upon ATP binding; sequences stand for … in TCGTCGGCAGCGTCAGATGTGTATAAGAGACAGTTTTTTTTTTTTTTTTTTTTTTTTT…TC). Settings: aptamer strand: ATP DNA aptamer (quencher-CACCTGGGGGAGTATTGCGGAGGAAGG + anchor), 100 nM annealed; ATP concentration: 500 uM.
Procedure, shortened: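 Between each of five buffer/ATP cycles, the flow-cell was stripped with NaOH and re-annealed. Each cycle imaged Cy3-labelled switching-strand clusters, annealed to 100 nM quencher-labelled ATP aptamer on a modified Illumina MiSeq flow-cell, first in selection buffer and then after 15 min with 500 uM ATP at 22 °C. The fluorescence ratio is summed target-cycle over summed buffer-cycle Cy3 intensity per cluster, averaged per switch-domain sequence, with clusters outside 100-1000 RFU excluded.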
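Also: ATP exposure 15 min at 22 °C before imaging.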

Sequence	switch fluorescence ratio
TTCGTTTGTC	1 ± 0.02
CTTTGTTTGA	0.976 ± 0.0076
AGTCTTTTGT	0.997 ± 0.026
CCGGGACAGC	1.17 ± 0.077
AAACGCCGAA	0.986 ± 0.062
TAAGGGTGGT	1.01 ± 0.027
GGATTTGGG	0.964 ± 0.014
CAGAAAAGCT	1.07 ± 0.034
ATGGTATCGT	0.986 ± 0.018
GATTCCGTCC	1.177 ± 0.0046
TTCGGGTGTT	0.9932 ± 0.0029
TGCGCAAGGG	1.27 ± 0.31
AAAAAGAAAT	1.04 ± 0.021
GGGCTGATCT	1.04 ± 0.045
TTATCGAGGC	1.06 ± 0.059
TATGAAGAGT	1.01 ± 0.017
ATCGGTACTG	0.965 ± 0.027
TGTGATGTCA	1.01 ± 0.016
TGTGGGAGAG	0.973 ± 0.038
TGCTGGTAGC	0.995 ± 0.042
CAGGTTGAAG	0.9631 ± 0.0069
CGGTACGGGG	0.979 ± 0.018
AGGGGAGGAA	0.994 ± 0.013
GCTACGGTAT	1.13 ± 0.07
AGGTGTGGGT	1.01 ± 0.037
AGGATGTTTT	0.995 ± 0.039

Sequence	switch fluorescence ratio
TCGACTATTT	1.04 ± 0.046
GCGTGATAAT	1 ± 0.062
ATATCTTTTT	0.983 ± 0.037
TCGATGATGG	1.05 ± 0.013
CTCTGTTTGC	1.803 ± 0.0037
CGAAAATTCA	1.02 ± 0.0077
CAGACGTAGG	1.01 ± 0.056
AAAGGAGGGA	1.01 ± 0.035
AAGGGCATTA	0.9891 ± 0.0096
AGTAGTAAGA	1.01 ± 0.022
GGCTGGGTGG	1.01 ± 0.053
GCTATCAGCG	0.995 ± 0.023
GGTGGACGGG	0.974 ± 0.015
TTTTGCGGAT	1.04 ± 0.015
CGGCGCGCTG	0.997 ± 0.034
TTGGGGTCAG	1 ± 0.038
TGATGTGGTG	0.976 ± 0.018
GTCTTGGTTC	0.9721 ± 0.0084
TGGTAATGGA	0.958 ± 0.046
AAGGTTGAGG	0.973 ± 0.034
TAGGGATTCC	1.014 ± 0.0079
GGCTTGCTTT	1.01 ± 0.021
CATTATGCGG	1 ± 0.025
CGGGAAAATT	1.02 ± 0.025
ATTGAGGCAG	0.9824 ± 0.0028
GTTTTGGTCG	0.9894 ± 0.007

Sequence	switch fluorescence ratio
CGTGTAGTGG	0.984 ± 0.018
TATTAGGTGT	1.04 ± 0.04
TCGTGGGTGG	1.03 ± 0.056
TTGGGGAGAA	0.98 ± 0.035
GGAGTTGTTG	0.99 ± 0.009
TGGGAGCAGC	1.02 ± 0.038
ATTTACGCCT	1.12 ± 0.05
TAGTAGTTGT	1 ± 0.013
CATCAGGGTT	0.974 ± 0.013
TACATCTGAA	0.993 ± 0.023
TTGGACGGTT	1 ± 0.015
ATTAAGAATT	0.9986 ± 0.0027
GAGAAGGGGG	1.04 ± 0.049
AGGGCATAAG	0.982 ± 0.062
ACGTTTGGTG	0.962 ± 0.03
TTTATAACCT	1.7 ± 0.61
TTTGCAGCAT	1.13 ± 0.22
ACTGCAGAGG	1.08 ± 0.034
TGGGGTTGCC	0.96 ± 0.026
TAAAATGGTT	1.02 ± 0.032
CGGTGATCGT	1.02 ± 0.015
CCGTTGTATT	1.12 ± 0.035
TGCAGGAGCT	1.01 ± 0.032
GACCGGCGGT	0.996 ± 0.035
TGCAGCTGCG	0.974 ± 0.049
TTATGAGGTG	1.08 ± 0.061

Sequence	switch fluorescence ratio
GGAGGTACAC	1.03 ± 0.037
CCTAACCGTC	1.156 ± 0.0056
TTTTTTTCAC	0.953 ± 0.058
CGAGGGACGG	0.992 ± 0.024
ATTAATTTCT	1 ± 0.024
GACTTGGTAG	0.9884 ± 0.0053
GGGGGACTGA	0.991 ± 0.03
GTTGGGAAGA	1.01 ± 0.034
GTTTGCGTAT	1.02 ± 0.048
TTCGTTATGG	1 ± 0.046
AAGAGCGGAC	1.11 ± 0.047
CTAGTTCAGC	0.99 ± 0.028
ACGCCTTATT	1.03 ± 0.02
ATGTAACGTT	1.006 ± 0.0088
TTCAAATCGT	0.991 ± 0.013
TTGGTAGTGG	0.977 ± 0.028
TTTGATTAT	0.996 ± 0.012
TATGGCCAGC	0.994 ± 0.047
TTAGGGGCGC	0.985 ± 0.014
AGAAGATGCT	0.9797 ± 0.0088
ATCGTGGGGT	0.971 ± 0.016
GTCGTTGCCT	0.99139 ± 0.00027
CTATTGTTTT	1.03 ± 0.079
GGGTTCAATC	1.04 ± 0.014
AGGCGGCGAG	1 ± 0.024
GAGGATCTGT	0.961 ± 0.023

Sequence	switch fluorescence ratio
GGGTTTTTAT	0.989 ± 0.027
GGGACAGGGG	1.21 ± 0.35
CGTGTGGGAC	1.0136 ± 0.00016
AGGCAGCTAT	1.05 ± 0.038
GGGCCACGTA	0.971 ± 0.082
TAATTGGTTG	0.982 ± 0.012
AAATTAATTT	1.02 ± 0.043
GACAGCAAAT	1.406 ± 0.0043
AGAGGTAACT	0.993 ± 0.014
GGGCGGGGCT	0.994 ± 0.016
TGGTGGCGCG	0.976 ± 0.027
GATGTACGCA	0.973 ± 0.075
ATAGGGTGAT	1.03 ± 0.021
ATCAGGGGAG	1 ± 0.018
AAACATAGCC	1.07 ± 0.011
TTTTTGTCCC	1.04 ± 0.054
TAACAGTGAG	0.964 ± 0.021
GTGAATGCTG	0.938 ± 0.048
TAAAGAAAGG	1.02 ± 0.013
TAAGAAGGAA	0.9918 ± 0.0091
TTGGGACTTG	0.999 ± 0.054
TTCGAACGGG	1.01 ± 0.016
TAGGAGAAGG	1.04 ± 0.036
CGTGTCCAGG	1.3 ± 0.024
TTACGGGGTG	1.02 ± 0.019
TGAGGACAGG	1.06 ± 0.054

Sequence	switch fluorescence ratio
GTTTTAGGGA	0.979 ± 0.037
GTAGTCGTAC	1.11 ± 0.064
TGTATCGGGT	0.979 ± 0.035
TAAAGAGATG	1.011 ± 0.0072
TTTTGTGTCA	0.969 ± 0.029
GTTTTTGAAT	0.992 ± 0.033
GGTCAAATAA	0.99 ± 0.042
GTTTGTGGGT	0.977 ± 0.011
CGGGTGGGG	1.03 ± 0.071
CTGGGGAGCT	1.03 ± 0.05
AGGGGGAATA	1.02 ± 0.011
ATAGGGTTGG	0.996 ± 0.049
CGTTTCATTT	0.995 ± 0.027
TTTTTTTTTG	0.987 ± 0.025
GGAATATGC	1.13 ± 0.1
AAGGATGGTG	0.957 ± 0.069
CGGTGTACTG	0.992 ± 0.013
TCACCGATTC	1.11 ± 0.024
CGTTTGTTAT	1.05 ± 0.04
ATCGGGTGTA	0.994 ± 0.013
ATTCCGGTCT	0.978 ± 0.011
CTAGAGGGCG	1.014 ± 0.0084
CTTGGGCCAC	1 ± 0.032
